Measurements from patent US20230295310A1 (ABCELLERA BIOLOGICS, published 2023).

Legend:
human CD3 [1] = biological target: T1, human CD3 (human, UniProt P07766 23-207; P04234 22-171; P09693 23-182); assay: flow cytometry, Jurkat cells
T1 construct: whole, on cells; also called CD3 on Jurkat cells; CD3 on human primary T cells
Protocol: (§1) Purified antibodies were confirmed to bind CD3 expressed on cells using the CytoFLEX S or LX flow cytometers (Beckman Coulter). Antibodies were diluted to 25 nM in FACS buffer (PBS+2% FBS) and were incubated with CD3-expressing cells for 30 minutes at 4° C. […] The median fluorescence intensity of the binding signal for each antibody was normalized to the isotype control to obtain a fold over isotype value. An antibody with a fold over isotype (FOI) of ≥10 was considered to be positive for binding.

cynomolgus monkey CD3 = biological target: T2, cynomolgus monkey CD3 (cynomolgus monkey, UniProt Q95LI5 22-198; Q95LI8 22-171; Q95LI7 23-181); assay: flow cytometry, cyno primary T cells
T2 construct: whole, on cells; CD3 on purified cynomolgus monkey CD3 pan T cells; also called cyno CD3; CD3 on cyno primary T cells
T2 sequence (Q95LI5 22-198, chain 1 of 3): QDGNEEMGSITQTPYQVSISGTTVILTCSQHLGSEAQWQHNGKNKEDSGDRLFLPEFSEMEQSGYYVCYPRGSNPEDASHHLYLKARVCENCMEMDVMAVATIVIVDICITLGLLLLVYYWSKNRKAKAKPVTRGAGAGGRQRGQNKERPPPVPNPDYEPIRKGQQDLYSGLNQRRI
T2 sequence (Q95LI8 22-171, chain 2 of 3): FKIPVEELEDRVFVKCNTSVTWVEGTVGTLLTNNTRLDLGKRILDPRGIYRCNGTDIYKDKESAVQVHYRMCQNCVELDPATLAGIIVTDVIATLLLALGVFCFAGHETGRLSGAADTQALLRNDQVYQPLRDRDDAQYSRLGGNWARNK
T2 sequence (Q95LI7 23-181, chain 3 of 3): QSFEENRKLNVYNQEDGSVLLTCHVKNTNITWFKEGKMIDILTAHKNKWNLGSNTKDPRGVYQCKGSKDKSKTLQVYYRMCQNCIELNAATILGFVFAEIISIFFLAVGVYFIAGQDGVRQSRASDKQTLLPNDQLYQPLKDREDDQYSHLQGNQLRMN
Method in brief: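 25 nM Ab in FACS buffer (PBS+2% FBS), 30 min at 4° C on CD3+ cells; flow cytometry MFI normalized to isotype = FOI; cutoff ≥10 for positive.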

human CD3 [2] = biological target: T1, human CD3; assay: flow cytometry, Jurkat cells, 25 nM antibody
Protocol: as §1

human CD3 [3] = biological target: T1, human CD3; assay: flow cytometry, human primary T cells, 25 nM antibody
Protocol: as §1

T1 sequence (P07766 23-207, chain 1 of 3): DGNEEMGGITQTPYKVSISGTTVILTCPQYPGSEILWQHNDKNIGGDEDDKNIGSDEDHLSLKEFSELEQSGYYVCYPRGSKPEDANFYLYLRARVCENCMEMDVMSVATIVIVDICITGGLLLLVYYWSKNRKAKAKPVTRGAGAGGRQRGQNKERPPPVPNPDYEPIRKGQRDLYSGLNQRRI
T1 sequence (P04234 22-171, chain 2 of 3): as the sequence (Q95LI8 22-171, chain 2 of 3) above, with V5I, K15N, V20I, T32S, N33D, N34I, A64T, N74S, L83V, R141H counted along it
T1 sequence (P09693 23-182, chain 3 of 3): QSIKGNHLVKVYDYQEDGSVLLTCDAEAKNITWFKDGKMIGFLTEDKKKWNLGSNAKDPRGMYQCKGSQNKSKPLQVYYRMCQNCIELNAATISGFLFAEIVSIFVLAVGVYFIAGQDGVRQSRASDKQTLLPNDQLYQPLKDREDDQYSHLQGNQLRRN

| Binder | binding result (human CD3 [1]) | binding result (cynomolgus monkey CD3) | Jurkat Cell Binding (FOI) (human CD3 [2]) | Human primary T Cell Binding (FOI) (human CD3 [3]) |
| --- | --- | --- | --- | --- |
| mAb 323 (antibody, V domains shown, VH and VL only) VH: QVQVVQSGAEVKNPGASVKVSCKASGYTFTGYYMHWVRQAPGQGLEWMGWIYPNSGRTNYAQKFQGRVTMTRDTSISTAYMELSRLRSDDTAVYYCARLEQLVFDYWGQGTLVTVSS VL: not shown | no binding (tested: FOI ≥10 = positive; 25 nM) | no binding (tested: FOI ≥10 = positive; 25 nM) |  |  |
| mAb 310 (antibody, V domains shown, VH and VL only) VH: QVQLVESGGGVVQPGRSLRLSCAASGFTFRSYGMHWVRQAPGKGLEWVTIIWYDGSKKYYADSVRGRFTISRDNSKNMLYLQMNSLRAEDTAVYYCASQEFNWNDGGFYYMDVWGKGTTVTVSS VL: DIQLTQSPSFLSASVGDRVTITCRASQDISSYLHWCQQKPGKAPKLLIYGASTLQSGVPSRFSGSGSGKEFTLTISSLQPEDFATYYCQQLDNYPPTFGGGTKVEIK | no binding (tested: FOI ≥10 = positive; 25 nM) | no binding (tested: FOI ≥10 = positive; 25 nM) |  |  |
| mAb 300 (antibody, V domains shown, VH and VL only) VH: EVQLLESGGGLVQPGGSLRLSCAASGFTFSRYAMSWVRQAPGRGLEWVSTISGSGGRTYYVDSVKGRFTISRDNSKNTLYLQMNSLRAEDTAVYYCAKMFSYYYYYMDVWGKGTTVTVSS VL: EIVMTQSPATLSLSPGKRATLSCRASQSVSTTYLSWYLQKPGQAPRLLIYGASTRATGIPARFSGSGSGTDFTLTISSLQPEDFAVYYCQQDYNLPPYTFGQGTKLEIK |  | no binding (tested: FOI ≥10 = positive; 25 nM) | 68 FOI | 26.7 FOI |
| mAb 294 (antibody, V domains shown, VH and VL only) VH: EVQLLESGGGLVQPGGSLRLSCAASGFTFSSSVMSWVRQGPGKGLEWVSAIRGSGVYTYYADSVKGRFTISRDNSKNTLYLQMNSLRAEDTAVYYCAKKYSYYYYYMDVWGKGTTVTVSS VL: PYELTQPLSVSVALGQTARITCGGNNIGSKDVHWYQQKPGQAPVLVIYRDSNRPSGIPERFSGSNSGNTATLTISRAQAGDEADYYCQVWDSSTAVFGGGTQLTAL | no binding (tested: FOI ≥10 = positive; 25 nM) | no binding (tested: FOI ≥10 = positive; 25 nM) |  |  |
| mAb 306 (antibody, V domains shown, VH and VL only) VH: EVQLLESGGGLVQPGGSLRLSCAASGFTFNSYAMSWVRQAPGRGLEWVSAISGRKSTTYYADSVKGRFTISRDNSKNTLYLQMNSLRAEDTAVYYCAKLWNYYYYYMDVWGKGTTVTVSS VL: SYELTQPLSVSVALGQTARITCGGNNIGSKDVHWYQQKPGQAPVLVIYRDSNRPSGIPERFSGSNSGNTATLTISRAQAGDEADYYCQVWDSSTAVFGGGTQLTAL |  | no binding (tested: FOI ≥10 = positive; 25 nM) | 216 FOI | 219 FOI |
| mAb 312 (antibody, V domains shown, VH and VL only) VH: EGQLLESGGGLVQPGGSLRLSCAASGFTFSRYAMSWIRQAPGKGLEWVSVINGSGGDKNYADSVKGRFTISRDNSKNSLYLLMNGLRVEDTAIYFCAKKFSYYYYYMDVWGKGTSVTVSS VL: SYELTQPLSVSVALGQTARITCGGNNIGSKNVHWHQQKPGQAPVLVIYRESNRPSGIPGRFSGSNSGNTATLTSSRAQAGDEADYYCQVWDSSTAVFGGGTQLTAL | no binding (tested: FOI ≥10 = positive; 25 nM) | no binding (tested: FOI ≥10 = positive; 25 nM) |  |  |
| mAb 318 (antibody, V domains shown, VH and VL only) VH: EGQLLESGGGLVQPGGSLRLSCAASGFTFSRYAMSWIRQAPGKGLEWVSVIDGSGGDKNYADSVKGRFTISRDNSKNSLYLLMNGLRVEDTAIYFCAKKFSYYYYYMDVWGKGTSVTVSS VL: SYELTQPLSVSVALGQTARITCGGNNIGGKDVHWYQQKPGQAPVLVIYRDSNRPSGIPERFSGSNSGNTATLTISRAQAGDEADYYCQVWDSRTAVFGGGTQLTAL |  | no binding (tested: FOI ≥10 = positive; 25 nM) | 211 FOI | 211 FOI |
| mAb 311 (antibody, V domains shown, VH and VL only) VH: EVQLLESGGGLVQPGGSRRLSCAASGFTFSSYAMSWVRQAPGKGLEWVSVINTRGDITSYADSVKGRFTISRDNSKNTLYLQMNSLRAEDTAVYYCAKKYSYYYYYMDVWGKGTTVTVSS VL: SYELTQPLSVSVALGQTARITCGGNNIGSKNVHWHQQKPGQAPVLVIYRESNRPSGIPERFSGSNSGNTATLTSSRAQAGDEADYYCQVWDSSTAVFGGGTQLTAL | no binding (tested: FOI ≥10 = positive; 25 nM) | no binding (tested: FOI ≥10 = positive; 25 nM) |  |  |
| mAb 319 (antibody, V domains shown, VH and VL only) VH: EVQLLESGGGLLQPGGSRRLSCAATEFTFRSYAMSWVRQSPGKGLEWVSVISGRGDNTYYADSVKGRFTISRDNSKNTLYLQMNSLRAEDTAVYYCAKMYSYYYYYMDVWGKGTTVTVSS VL: SYELTQPLSVSVALGQTARITCGGNNIGSKNVHWHQQKPGQAPVLVIYRESNRPSGIPERFSGSNSGNTATLTSSRAQAGDEADYYCQVWDSSTAVFGGGTQLTAL | no binding (tested: FOI ≥10 = positive; 25 nM) | no binding (tested: FOI ≥10 = positive; 25 nM) |  |  |
| mAb 297 (antibody, V domains shown, VH and VL only) VH: EVQLLESGGGLVQPGGSLRLSCAASGFTFSSYAMNWVRQAPGKGLEWVSIISGGRRDDITYYAASVKGRFTISRDNSKNTLYLQMNSLRAEDTAVYYCAKMYNYYYYYIDVWGKGTTVTVSS VL: SYELTQPLSVSVALGQTAKITCGGNNIGSKDVHWYQQKPGQAPVLVIYRDSNRPSGIPERFSGSNSGNTATLTISRAQAGDEADYYCQVWDSNTAVFGGGTQLTAL |  | no binding (tested: FOI ≥10 = positive; 25 nM) | 220 FOI | 211 FOI |
| mAb 303 (antibody, V domains shown, VH and VL only) VH: EVHLLESGGGLVQPGGSLRLSCAASGFTFSSYAMNWVRQAPGKGLEWISIISGGRRSGITYYAASVKGRFTISRDNSKNTLDLQMNSLRAEDTAVYYCAKMYNYYYYYIDVWGKGTTVTVSS VL: SYELTQPLSVSVALGQTARITCGGNNIGSKDVHWYQQKPGQAPVLVIYRDSNRPSGIPERFSGSNSGNTATLTISRAQAGDEADYYCQVWDSNTAVFGGGTQLTAL |  | no binding (tested: FOI ≥10 = positive; 25 nM) | 247 FOI | 256 FOI |
| mAb 304 (antibody, V domains shown, VH and VL only) VH: EVQLLESGGGLVQPGGSRRLSCAASGFTFSSYAMSWVRQAPGKGLEWVSVISGRGDNTNYADSVKGRFTISRENSKNILYLQMNSLRAEDTAVYYCAKKYSYYYYYMDVWGKGTTVTVSS VL: SYELTQPLSVSVALGQTARITCGGNNIGSKDVHWYQQKPGQAPVLVIYRDSNRPSGIPERFSGSNSGNTATLTISRAQAGDEADYYCQVWDSRTAVFGGGTQLTAL |  | no binding (tested: FOI ≥10 = positive; 25 nM) | 234 FOI | 226 FOI |
| mAb 296 (antibody, V domains shown, VH and VL only) VH: EVQLLESGGGLVQPGGSLRLSCAASGFTFSSYAMSWVRQAPGKGLEWVSAISGSGGTTYYTDSVKGRFTISRDNSKNTLYLQMNSLRAEDTAVYYCAKKYSYYYYYMDVWGKGTTVTVSS VL: SYELTQPLSVSVALGQTARITCGGNNIGSKNVHWYQQKPGQAPVLVIYRDSNRPSGIPERFSGSNSGNTATLTISRAQAGDEADYYCQVWDSSTAVFGGGTQLTAL |  | no binding (tested: FOI ≥10 = positive; 25 nM) | 167 FOI | 183 FOI |
| mAb 316 (antibody, V domains shown, VH and VL only) VH: EVQLLESGGGLVQPGGSRRLSCAASGFTFRTYAMSWVRQAPGKGLEWVSVINGRGDDTNYADSVKGRFTISRDNSKNILFLQMNSLRAEDTAVYYCAKKYSYYYYYMDVWGKGTTVTVSS VL: SYELTQPLSVSVALGQTARITCGGNNIGSKDVHWYQQKPGQAPVLVIYRDSNRPSGIPERFSGSNSGNTATLTISRAQAGDEADYYCQVWDSRTAVFGGGTQLTAL |  | no binding (tested: FOI ≥10 = positive; 25 nM) | 253 FOI | 241 FOI |
| mAb 301 (antibody, V domains shown, VH and VL only) VH: EVQLLESGGGLVQPGGSRRLSCAASGFTFSSYAMSWVRQAPGKGLEWVSVISGRGDNTNYADSVKGRFTISRENSKNMLYLQMNSLRAEDTAVYYCAKKYSYYYYYMDVWGKGTTVTVSS VL: SYELTQPLSVSVALGQTARITCGGNNIGSKDVHWYQQKPGQAPVLVIYRDSNRPSGIPERFSGSNSGNTATLTISRAQAGDEADYYCQVWDSRTAVFGGGTQLTAL |  | no binding (tested: FOI ≥10 = positive; 25 nM) | 253 FOI | 283 FOI |
| mAb 324 (antibody, V domains shown) VH: QVQVVQSGAEVKKPGASVKVSCKTSGYTFTDYYIHWVRQAPGQGLEWMGWIYPKSGRTDNAQNFKGRVAMTRDTSINTAYLELNRLRSDDTAIYYCARLEELVFDYWGQGTLVTVSS VL: DIQMTQSPSSVSASVGDRVTITCRASQVISRWLAWYQLKPGKAPKLLIYEASSLQSWVPSRFSGSGSGTDFTLTISSLQPEDFATYYCQQANSFPWTFGQGTKVEIK | no binding (tested: FOI ≥10 = positive; 25 nM) | no binding (tested: FOI ≥10 = positive; 25 nM) |  |  |
